Results as given in patent US20250313612A1 (Adimab, published 2025).

Columns and labels:
[1] = molecular target: RSV F protein of recombinant mKate-RSV, subtype A (strain A2) (Respiratory syncytial virus subtype A …, UniProt P03420 26-574); assay: cell-based or functional assay
[2] = molecular target: RSV F protein of recombinant mKate-RSV, subtype B (18537) (Respiratory syncytial virus subtype B …, UniProt P13843 26-574); assay: cell-based or functional assay
[3] = molecular target: T1, RSV F ectodomain stabilized in the postfusion conformation (F ΔFP), subtype B (Respiratory syncytial virus subtype B, UniProt P13843 26-109; P13843 147-524); assay: BLI, IgG on AHQ sensor, 100 nM antigen
T1 construct: extracellular domain; trimer; also called Postfusion subtype B; postF subtype B

[4] = molecular target: T2, RSV F ectodomain stabilized in the postfusion conformation (F ΔFP), subtype A (Respiratory syncytial virus subtype A, UniProt P03420 26-109; P03420 147-524); assay: BLI, IgG on AHQ sensor, 100 nM antigen
T2 construct: extracellular domain; trimer; furin-cleaved; also called Postfusion subtype A

| Binder | Neut IC50 subtype A [1] [µg/mL] | Neut IC50 subtype B [2] [µg/mL] | Kd [3] [nM] | Kd [4] [nM] |
| --- | --- | --- | --- | --- |
| ADI-14522 (antibody, V domains shown, full-length IgG (yeast-expressed); also called Antibody Number 82; Ab# 82) VH: EVQLVESGAEVKKPGDSVKVSCRASGYSFTGPFLHWVRQAPGQRLEHMGWINPRSGETKYAQSFLGRVTMTRDTSIRSATLELSSLRSDDTAVYYCARDLYSSGWLDNWGQGTLVTVSS VL: ETTLTQSPATLSVSPGERATLSCRASQGLSSNLAWYQHKPGQAPRLLVYGVATRATGVPARFSGSGSGTEFTLTISSLQSDDFALYYCHQYNDWPYTFGQGTKLEIK | 3.53 | 7.29 | 1.06 |  |
| ADI-14486 (antibody, V domains shown, full-length IgG (yeast-expressed); also called Antibody Number 47; Ab# 47) VH: QVQLQESGPGLVKPSETLSLTCTVSGGSINNYFWSWIRQPPGKGLEWLGYIYNSGSTYYNPSLNSRVTISLQKSKNQFSLHLTSMTAADTAVYFCARHPSVIYGTFGANGGPNWFDPWGQGTLVTVSS VL: QSVLTQPASVSGSPGQSITISCTGTSSDVGGYNYVSWYQQHPGKAPKLMIFDVTYRPSGISNRFSGSKSGNTASLTISGLHSEDEADYYCSSYTGSNTVIFGGGTKLTVL |  |  | 0.636 | 0.529 |
| ADI-14495 (antibody, V domains shown, full-length IgG (yeast-expressed); also called Antibody Number 56; Ab# 56) VH: QITLKESGPTLVKPTQTLTLTCSFSGFSLTTRGVGVGWVRQPPGKALECLGFVYWDDDKRYSPSLRSRLTISEDTSKNQVVLTMTNMDPLDTATYYCVHSDLYDRGGYYLFYFDYWGQGTLVTVSS VL: DIVLTQSPSSLSASVGDRVTITCRASQPIASYLNWYQHKPGKAPKLLIYAASSLQSGVSSTFSGRGSGTDFTLTITALQPEDFAIYYCQQSYTFPYTFGQGTKVDIK | 0.864 | 17.4 | 1.71 | 0.367 |
| ADI-14498 (antibody, V domains shown, full-length IgG (yeast-expressed); also called Antibody Number 59; Ab# 59) VH: EVQLVESGPTLVKPTQTLTLTCTFSGFSLTTRGMGVGWIRQPPGRSLEWLAVIYWDGDVRYSPSLKGRLTITKDTPKNQVVLTMTNMDPVDTATYYCVHSDLYDRNAYYLHYFDFWGQGTLVTVSS VL: DIRLTQSPSSLSASVGDRVTITCRASQIIASYLNWYQQKPGKAPNLLIFAASSLQSGVPSRFRGSGSGTDFTLTISSLQPEDFATYYCQQSYSIPYTFGQGTKLEIK | > 10 | > 10 | 2.27 | 0.412 |
| ADI-14503 (antibody, V domains shown, full-length IgG (yeast-expressed); also called Antibody Number 64; Ab# 64) VH: QVQLVQSGGGLVKPGGSLRLSCAASGFSLTNYRMNWVRQAPGKGLEWVSSLKDSSSYIYYADSVKGRFTVSRDDAKNSFFLQMTNVRAEDTAVYYCAREGSDTEYWRLTPPMDVWGNGTTVTVSS VL: QSVLTQPPSVSVAPRQTARITCGEHNIGTKSVHWYQQKPGQAPVLVIYDDSDRPSGIPARFSGSNSGNTATLTISWVEAGDEAVYYCQVWDSGDHPWLFGGGTQLTVL | 0.016 | 0.026 |  | 26.1 |
| ADI-14492 (antibody, V domains shown, full-length IgG (yeast-expressed); also called Antibody Number 53; Ab# 53) VH: EVQLVESGGGLVRPGGSLGLSCSASGFIFSNAWMTWVRQAPGKGLEWVGHIKSKVNGGTTAYGAPVKGRFTISRDDSRNTLFLQMNSLKTEDTGVYYCTTGPPYQYFDDSGYSVVDYWGQGTLVTVSS VL: QSVVTQPPSASGTPGQRVTISCSGSDSNIGTDYFYWYQQLPGSAPKLLIYGSNQRPSGVPDRFSGSQSGSAASLAISGLRSEDDADYYCAAWDDSLGGPVFGGGTKVTVL | 0.204 | 0.681 | 0.111 | 0.166 |
| ADI-14491 (antibody, V domains shown, full-length IgG (yeast-expressed); also called Antibody Number 52; Ab# 52) VH: EVQLVESGGGVVQPGRSLRLSCAASGFTFSDHAMYWVRQAPGKGLEWVALISFDGRNIYYADSVKGRFTISRDNSKNTLYLQMNSLRAEDTAVYYCARDQWLVPDYWGQGTLVTVSS VL: QSVLTQPASVSGSPGQSITISCTGTSSDVGGYNYVSWYQQHPGNAPKLMIYEVSKRPSGVPDRFSGFKSGNTASLTVSGLQAEDEADYYCSSYAGSNSVFGTGTKVTVL | 0.105 | 0.102 | 0.158 | 0.238 |
| ADI-14494 (antibody, V domains shown, full-length IgG (yeast-expressed); also called Antibody Number 55; Ab# 55) VH: EVQLVESGGGVVQPGRSLRLSCAASGFTFSDHAMYWVRQAPGKGLEWVALISFDGRNIYYADSVKGRFTISRDNSKNTLYLQMNSLRAEDTAVYYCARDQWLVPDYWGQGTLVTVSS VL: QSALTQPASVSGSPGQSITISCTGTSSDVGGYNYVSWYQQHPGNAPKLMIYEVSKRPSGVPDRFSGFKSGNTASLTVSGLQAEDEADYYCSSYAGSNSVFGTGTKVTVL | 0.084 | 0.089 | 0.155 | 0.24 |
| ADI-14461 (antibody, V domains shown, full-length IgG (yeast-expressed); also called Antibody Number 24; Ab# 24) VH: EVQLVESGGGVVQPGRSLRLSCAASGFTFSDHAMYWVRQAPGKGLEWVALISFDGRNIYYADSVKGRFTISRDNSKNTLYLQMNSLRAEDTAVYYCARDQWLVPDYWGQGTLVTVSS VL: LPVLTQPASVSGSPGQSITISCTGTSSDVGGYNYVSWYQQHPGNAPKLMIYEVSKRPSGVPDRFSGFKSGNTASLTVSGLQAEDEADYYCSSYAGSNSVFGTGTKLTVL | 0.129 | 0.152 | 0.156 | 0.231 |
| ADI-14525 (antibody, V domains shown, full-length IgG (yeast-expressed); also called Antibody Number 85; Ab# 85) VH: EVQLLESGGGVVQPGRSLRLSCTASGFTFSDHAMYWVRQAPGKGLEWVALISFDGRNIYYADSVKGRFTISRDNSKNTLYLQMNSLRAEDTAVYYCARDQWLVPDYWGQGTLVTVSS VL: QSVLIQPASVSGSPGQSITISCTGTSSDVGGYNYVSWYQQHPGNAPKLMIYEVSKRPSGVPDRFSGFKSGNTASLTVSGLQAEDEADYYCSSYAGSNSVFGTGTQLTVL | 0.135 | 0.108 | 0.149 | 0.23 |
| ADI-14473 (antibody, V domains shown, full-length IgG (yeast-expressed); also called Antibody Number 35; Ab# 35) VH: QVQLVQSGAEVKKPGEPLRISCKGSGYTFTSYWISWVRQMPGTGLEWMGRIDPSDSYTYSSPSFQGHVTISVDKSISTAYLQWSSLKASDTAIYYCARHKENYDFWDFWGQGTLVTVSS VL: ETTLTQSPDSLAVSLGERATINCKSSQTIFFNSNNKISLAWYQQKPGQPPKLLISWASTRESGVPDRFSGSGSGTDFTLTISSLQPEDVAVYFCQQYYSSAFFGPGTRLEIK |  |  | 0.151 | 0.224 |
| ADI-14483 (antibody, V domains shown, full-length IgG (yeast-expressed); also called Antibody Number 44; Ab# 44) VH: QVQLVQSGGRLVKPGGSLRLSCGMSGFGFSSYRMNWVRQAPGKGLEWISSISASSSYTDYANSVKGRFTISRDGANLFLQMNSLRVEDTAVYYCARDWGGHSIFGAVQDLWGQGTLVTVSS VL: QSVLTQPPSVSGAPGQRVTISCSGSSSNIGAGYDVHWYQQLPGTAPKLLIYGNTNRPSGVPDRFSGSKSGTSASLAITGLQAEDEADYYCQSYDRSLSQVFGAGTKVTVL | 0.031 | 0.03 | 20 |  |
| ADI-14438 (antibody, V domains shown, full-length IgG (yeast-expressed); also called Antibody Number 1; Ab# 1) VH: QVQLVQSGAEVKKPGASVKVSCRASGFVFTSYDINWVRQAPGQGLEWMGRMNAHTGQVTYAQKFQDKVSMTRDVSITTAYLELSRLASEDTAVYYCARPDINWGQDAFDVWGQGTMVTVSS VL: DIRMTQSPSTLSASIGARVTITCRASQNIGNFLAWYQQKPGKAPKLLIYKASTLDPGVPSRFSGSGSGTEFTLTITSLQPDDFATFYCQQYKSDPTFGQGTKVEIK | 0.289 | 0.237 | 8.29 | 11.8 |
| ADI-14443 (antibody, V domains shown, full-length IgG (yeast-expressed); also called Antibody Number 6; Ab# 6) VH: QVQLVQSGTEVKKPGSSVKVSCKASGGTFGSYAVIWVRQAPGQGLEWMGHFIPVFATTNKAQKFQGRLTLSTDESTGTVYMELSSLRSEDTAVYFCATKRYCSDPSCHGLWYFDLWGRGTLVTVSS VL: DIQLTQSPLSLPVTPGEPASISCRSSQSLLDSDDGNTYLDWYLQKPGQSPQVLIYMLSYRASGVPDRFSGSGSGTDFTLEISRVEAEDVGVYYCMQRVEFPYTFGQGTKLEIK | 0.047 | 0.063 | 0.137 | 0.19 |
| ADI-14471 (antibody, V domains shown, full-length IgG (yeast-expressed); also called Antibody Number 34; Ab# 34) VH: QVQLVQSGAEVKKPGSSVKVSCKASGGTFGSYAVIWVRQAPGQGLEWMGHIIPVFGTINNAQKFQGRLTLSADESTGTVYMGLSSLRSDDTAVYFCATKRYCSDPSCHGLWYFDLWGRGTLVTVSS VL: DIRLTQSPLSLPVTPGEPASISCRSSQSLLDSDDGNTYLDWYLQKPGQSPQVLIYMLSYRASGVPDRFSGSGSGTDFTLKISRVEAEDVGVYYCMQRAEFPYTFGQGTKLEIK | 0.096 | 0.116 | 0.15 | 0.212 |
| ADI-14497 (antibody, V domains shown, full-length IgG (yeast-expressed); also called Antibody Number 58; Ab# 58) VH: QITLKESGPTLVKPTQTLTLTCTFSGFSLTTRGVGVGWIRQPPGKALEFLGFIHWDDDKTYSPSLRRRLTITKDTSNNEVVLTMTNMDPVDTATYYCVHSDLYDSGGYYLYYFDYWGQGTLVTVSS VL: EIVMTQSPSSLSASVGDRVTITCRASQPIPSYVNWYQQRPGKAPKLLIYAASNLQSGVSSKFSGRGFGTDFTLTIDTLQPEDFATYYCQQVYTSPYTFGQGTKLEIK | 0.115 | 0.116 | 4.82 | 0.358 |
